Source: article PMC7643343, “The intrinsically disordered region of GCE protein adopts a more fixed structure by interacting with the LBD of the nuclear receptor FTZ-F1” (Cell Communication and Signaling : CCS, 2020)

Target: T1, ligand binding domain of the nuclear receptor Fushi Tarazu factor-1 (LBD FTZ-F1) (Drosophila, UniProt P33244 786-1027, 15N-labelled in the experiment with the peptide; unlabelled in the experiment with GCEC)
T1 construct: cDNA synthesised (Gene Art); Cloned into pET-15b; residues left by the thrombin site are not described; Purified protein runs as a 26.5 kDa globular protein; also called FTZ-F1 LBD; LDB FTZ-F1 (786-1027); source: E. coli BL21(DE3), soluble fraction, purified (Ni-NTA, thrombin, second IMAC, SEC on Superdex75)
T1 sequence (looked up): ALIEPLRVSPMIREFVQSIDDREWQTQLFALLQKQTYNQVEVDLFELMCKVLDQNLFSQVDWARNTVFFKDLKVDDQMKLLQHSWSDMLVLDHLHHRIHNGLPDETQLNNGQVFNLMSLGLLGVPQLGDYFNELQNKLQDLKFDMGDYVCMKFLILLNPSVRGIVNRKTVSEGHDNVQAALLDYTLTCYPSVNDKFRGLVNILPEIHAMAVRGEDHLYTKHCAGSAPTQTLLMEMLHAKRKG
Test: NMR titration; 1H-15N HSQC chemical shift perturbation, 15N-labelled LBD FTZ-F1 after incubation with the … peptide (concentration set by its solubility limit), buffer F with 10% D2O, 22 °C, 800 MHz
Conditions: both partners purified

B1: 9-residue GCEC peptide (GCE^PEP) (peptide)
peptide: LRLIQNLQK
notes: stretch of the C-terminal region of GCE, D. melanogaster, with the novel NR-box (LIXXL motif; LIQNL); source: synthetic peptide (PSL GmbH, Heidelberg)
binding result: binds
